The numbers were not newly measured in PMC10249258, which cites them from elsewhere.

The target of this data set is CD155 (Homo sapiens) (UniProt P15151).
Sequence of UniProt P15151 (P15151 21-343): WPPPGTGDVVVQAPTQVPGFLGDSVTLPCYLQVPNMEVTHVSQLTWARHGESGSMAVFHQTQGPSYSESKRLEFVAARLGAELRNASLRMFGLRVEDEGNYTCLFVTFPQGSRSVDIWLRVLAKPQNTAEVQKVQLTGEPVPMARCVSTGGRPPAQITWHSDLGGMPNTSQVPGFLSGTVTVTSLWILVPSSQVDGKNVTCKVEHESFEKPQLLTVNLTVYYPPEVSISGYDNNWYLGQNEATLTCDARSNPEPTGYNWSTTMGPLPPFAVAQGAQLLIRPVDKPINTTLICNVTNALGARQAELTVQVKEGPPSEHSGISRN

Usually Kd stands for the constant that tells how readily two partners part at equilibrium. TIGIT (from UniProt Q495A1): the Kd was 2 nM.
